Results taken from the supplement of paper PMC7877785.
± gives the uncertainty stated by the source.

Experiment: self-splicing fitness, log relative to wild type (ln ratio); higher = more splicing; Tetrahymena group I intron in knt gene, E. coli kanamycin selection, DiMSum; sequences stand for … in CUCUCU…GGAGGGAAAAGUUAUCAGGCAUGCACCUGGUAGCUAGUCUUUAAACCAAUAGAUUGCAUCGGUUUAAAAGGCAAGACCGUCAAAUUGCGGGAAAGGGGUCAACAGCCGUUCAGUACCAAGUCUCAGGGGAAACUUUGAGAUGGCCUUGCAAAGGGUAUGGUAAUAAGCUGACGGACAUGGUCCUAACCACGCAGCCAAGUCCUAAGUCAACAGAUCUUCUGUUGAUAUGGAUGCAGUUCACAGACUAAAUGUCGGUCGGGGAAGAUGUAUUCUUCUCAUAAGAUAUAGUCGGACCUCUCCUUAAUGGGAGCUAGCGGAUGAAGUGAUGCAACACUGGAGCCGCUGGGAACUAAUUUGUAUGCGAAAGUAUAUUGAUUAGUUUUGGAGUACUCGUGGUCG
Method in brief: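 Pooled colonies went to amplicon sequencing on an Illumina HiSeq 2500 after six replicate transformations. The plates were LB agar with 100 μg/mL carbenicillin, 50 μM IPTG and 0.2% rhamnose, with or without 25 μg/mL kanamycin, incubated overnight at 37°C or 30°C. The E. coli BL21(DE3) library had all eight P1ex-region intron nucleotides randomised, the intron placed in the knt kanamycin-resistance gene on pET-22b(+). DiMSum fitness is the error-weighted combination of replicate fold changes, kanamycin against none, normalised to wild type.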

Row | Sequence | self-splicing fitness (ln) (30 °C) | self-splicing fitness (ln) (37 °C)
1 | ACUGAGCAAUAUUACGGCUG | -1.18 ± 0.16 | -0.804 ± 0.19
2 | GUCAAGCAAUAUUACGGCGG | -4.75 ± 0.32 | -2.83 ± 0.24
3 | GGAGAGCAAUAUUACGUAGC |  | -0.906 ± 0.37
4 | GCAAAGCAAUAUUACGCCUC | -2.69 ± 0.12 | -1.86 ± 0.16
5 | GUCGAGCAAUAUUACGACUU | -1.88 ± 0.27 | -1.3 ± 0.32
6 | UCGAAGCAAUAUUACGGUUG | -1.65 ± 0.097 | -0.93 ± 0.14
7 | CAUAAGCAAUAUUACGUGGG | -3.38 ± 0.12 | -3.49 ± 0.18
8 | UAAAAGCAAUAUUACGUUUC | -3.32 ± 0.14 | -2.36 ± 0.19
9 | CUCAAGCAAUAUUACGGACU | -2.42 ± 0.15 | -1.36 ± 0.2
10 | GCCUAGCAAUAUUACGGUUC | -1.02 ± 0.07 | -1.45 ± 0.11
11 | GCUAAGCAAUAUUACGGAUU | -1.14 ± 0.068 | -1.12 ± 0.092
12 | GCAUAGCAAUAUUACGUAUC | -3.24 ± 0.21 | -2.49 ± 0.22
13 | AUUCAGCAAUAUUACGGCAC | -0.847 ± 0.074 | -0.407 ± 0.096
14 | UUGUAGCAAUAUUACGAAGG |  | -1.9 ± 0.47
15 | AAAAAGCAAUAUUACGGGAA | -2.09 ± 0.13 | -1.82 ± 0.13
16 | AAUAAGCAAUAUUACGACUU | -0.182 ± 0.065 | 0.451 ± 0.094
17 | UCGUAGCAAUAUUACGUUUA | -1.5 ± 0.085 | -0.934 ± 0.08
18 | AUGUAGCAAUAUUACGCAAU | -1.49 ± 0.13 | -1.01 ± 0.23
19 | AAGAAGCAAUAUUACGUUAA | -2.77 ± 0.16 | -0.841 ± 0.11
20 | CAAAAGCAAUAUUACGAUAG | -0.0755 ± 0.065 | 0.3 ± 0.083
21 | AUCAAGCAAUAUUACGGUGU | -1.7 ± 0.076 | -1.11 ± 0.088
22 | GGAGAGCAAUAUUACGUUUU | -3.36 ± 0.23 | -1.15 ± 0.3
23 | UAUGAGCAAUAUUACGUUUC | -3.66 ± 0.4 | -1.67 ± 0.32
24 | GUGGAGCAAUAUUACGUGUU | -4.54 ± 0.47 | 
25 | CCAUAGCAAUAUUACGGACG | -1.47 ± 0.11 | -1.21 ± 0.14
26 | AUUCAGCAAUAUUACGUGGU | -3 ± 0.12 | -0.786 ± 0.099

Row | Sequence | self-splicing fitness (ln) (30 °C) | self-splicing fitness (ln) (37 °C)
27 | AAUGAGCAAUAUUACGAGCC | -1.79 ± 0.44 | 
28 | UGCAAGCAAUAUUACGAGUC | -2.87 ± 0.15 | -1.83 ± 0.14
29 | GGCGAGCAAUAUUACGACGC | -1.89 ± 0.29 | 
30 | AAUUAGCAAUAUUACGCUCA | -0.656 ± 0.12 | -0.204 ± 0.16
31 | UCUGAGCAAUAUUACGUGCG | -3 ± 0.1 | -1.34 ± 0.09
32 | ACGAAGCAAUAUUACGCUCA | -0.808 ± 0.11 | 0.223 ± 0.17
33 | CUACAGCAAUAUUACGCCUU | -2.27 ± 0.2 | -1.4 ± 0.31
34 | AUCAAGCAAUAUUACGAGUG | -2.19 ± 0.1 | -1.28 ± 0.14
35 | UACUAGCAAUAUUACGCUCC | -2.42 ± 0.23 | -1.21 ± 0.23
36 | GCCUAGCAAUAUUACGGUGC | -2.59 ± 0.15 | -1.48 ± 0.14
37 | CUAUAGCAAUAUUACGGCCU | -2.9 ± 0.38 | -1.78 ± 0.38
38 | AGCCAGCAAUAUUACGCAUA | -2.21 ± 0.15 | -1.34 ± 0.16
39 | UCUGAGCAAUAUUACGCUGG | -2 ± 0.16 | -1.11 ± 0.17
40 | UAUGAGCAAUAUUACGAUGG | -3.59 ± 0.29 | -0.796 ± 0.23
41 | UGUAAGCAAUAUUACGCUUU | -3.09 ± 0.26 | -2.72 ± 0.27
42 | ACGCAGCAAUAUUACGGUCG | -0.525 ± 0.055 | -0.355 ± 0.072
43 | CGUAAGCAAUAUUACGUCGG | -1.2 ± 0.08 | -0.133 ± 0.1
44 | CACUAGCAAUAUUACGAACG | -0.448 ± 0.071 | 0.647 ± 0.11
45 | CAACAGCAAUAUUACGACGG | -0.0366 ± 0.058 | 0.186 ± 0.085
46 | UCCCAGCAAUAUUACGGCUA | -1.31 ± 0.12 | -1.19 ± 0.12
47 | CCAUAGCAAUAUUACGUCAU | -4.08 ± 0.31 | -2.69 ± 0.17
48 | AACGAGCAAUAUUACGGCUG | -1.6 ± 0.14 | -0.126 ± 0.16
49 | GCCUAGCAAUAUUACGUUGC | -1.05 ± 0.076 | -0.0792 ± 0.081
50 | GGUAAGCAAUAUUACGCUCA | -0.326 ± 0.26 | -0.105 ± 0.48
51 | UGCAAGCAAUAUUACGCGAA | -2.03 ± 0.1 | -0.581 ± 0.083
52 | UCAUAGCAAUAUUACGUUCC |  | -1.99 ± 0.29

Row | Sequence | self-splicing fitness (ln) (30 °C) | self-splicing fitness (ln) (37 °C)
53 | AGUAAGCAAUAUUACGAGUG | -3.01 ± 0.27 | -3.04 ± 0.43
54 | CAGGAGCAAUAUUACGGGUA | -4.12 ± 0.42 | -3.31 ± 0.35
55 | AAAUAGCAAUAUUACGAUCA | -0.673 ± 0.095 | 0.0414 ± 0.089
56 | ACAUAGCAAUAUUACGUUGU | -3.63 ± 0.15 | -2.78 ± 0.2
57 | UGACAGCAAUAUUACGUCCC | -0.969 ± 0.17 | -1.51 ± 0.36
58 | AAUAAGCAAUAUUACGGUGG | -4.07 ± 0.17 | -2.31 ± 0.13
59 | CUACAGCAAUAUUACGGCUG | -3.92 ± 0.18 | -2.57 ± 0.22
60 | GGUCAGCAAUAUUACGAUUC | -0.716 ± 0.079 | -0.325 ± 0.11
61 | CGGCAGCAAUAUUACGCUCG |  | -2.93 ± 0.32
62 | UUACAGCAAUAUUACGGCGU | -2.6 ± 0.14 | -2.57 ± 0.21
63 | CCCUAGCAAUAUUACGCCGU | -2.57 ± 0.25 | -2.42 ± 0.39
64 | GUACAGCAAUAUUACGUCAA | -1.75 ± 0.16 | -2.38 ± 0.21
65 | UUUAAGCAAUAUUACGCUCA | -0.755 ± 0.15 | -0.395 ± 0.17
66 | GAGGAGCAAUAUUACGCGUU | -3.99 ± 0.39 | -2.2 ± 0.36
67 | AUAAAGCAAUAUUACGACAU | 0.424 ± 0.012 | 0.344 ± 0.032
68 | UCUCAGCAAUAUUACGACGC |  | 0.221 ± 0.23
69 | GGUCAGCAAUAUUACGGUCC | -3.1 ± 0.39 | -1.81 ± 0.37
70 | CUGAAGCAAUAUUACGAUCU | -3.3 ± 0.16 | -3.2 ± 0.28
71 | AUAUAGCAAUAUUACGGCCA | -1.28 ± 0.22 | -0.185 ± 0.26
72 | AUCAAGCAAUAUUACGACGC | -0.837 ± 0.099 | -0.402 ± 0.12
73 | GACGAGCAAUAUUACGUUGG | -3.34 ± 0.12 | -3.25 ± 0.22
74 | AACCAGCAAUAUUACGAUGA | -0.753 ± 0.069 | -0.507 ± 0.08
75 | GAUUAGCAAUAUUACGUAAC | -1.94 ± 0.17 | 0.224 ± 0.14
76 | UUCUAGCAAUAUUACGAGUA | -0.88 ± 0.15 | -0.0809 ± 0.13
77 | UUGGAGCAAUAUUACGAUGA | -0.635 ± 0.11 | -0.543 ± 0.11
